According to article PMC11433124:

Target: hRTL (Chondrilla australiensis tetramer lectin) (Chondrilla australiensis)
Test: SEC + other: SDS-PAGE; gel permeation chromatography on Shodex KW 402.5-4F (HPLC, 0.33 mL/min) in 50 mM sodium bicarbonate in saline, 60 kDa; SDS-PAGE under non-reducing conditions after 3 min or 20 min heating at 80 °C, 66 kDa and 18 kDa; subunit mass 15,521.11 Da by MALDI-TOF-MS

stoichiometry N: 4
Substance: hRTL (Chondrilla australiensis tetramer lectin) (natural protein)
